{"source": "paper PMC3970081", "origin": "cited, not measured here", "target": "KIF5B tail (Rattus norvegicus) (UniProt Q2PQA9)", "sequence (Q2PQA9 758-963)": "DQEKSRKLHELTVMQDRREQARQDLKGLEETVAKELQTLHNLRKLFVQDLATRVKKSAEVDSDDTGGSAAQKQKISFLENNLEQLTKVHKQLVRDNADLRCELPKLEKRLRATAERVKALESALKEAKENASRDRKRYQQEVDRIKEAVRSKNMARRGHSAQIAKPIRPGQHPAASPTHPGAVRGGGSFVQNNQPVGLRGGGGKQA", "experiment": "SPR", "data": [{"substance": "Kv3.1 T1 domain (from UniProt P25122)", "values": [{"measurement": "Kd", "value": 0.06, "unit": "µM"}]}]}
